Read-outs that look alike come from different tables or passages of the source.
How the values were obtained:
gp41 (535-681)-His6 [1] = system: gp41 (535-681)-His6
gp41 (535-681)-His6 [2] = target: gp41 (535-681)-His6; remark: listed apart in the source

C-terminally truncated SlyD from E. coli
aggregation of gp41 after shift to neutral pH (UV spectra) (gp41 (535-681)-His6 [1]): Comparable data have been obtained with ... a C-terminally truncated SlyD from E. coli

B1: FkpA from E. coli (mature FkpA) (protein)
chain: AEAAKPATAADSKAAFKNDDQKSAYALGASLGRYMENSLKEQEKLGIKLDKDQLIAGVQDAFADKSKLSDQEIEQTLQAFEARVKSSAQAKMEKDAADNEAKGKEYREKFAKEKGVKTSSTGLVYQVVEAGKGEAPKDSDTVVVNYKGTLIDGKEFDNSYTRGEPLSFRLDGVIPGWTEGLKNIKKGGKIKLVIPPELAYGKAGVPGIPPNSTLVFDVELLDVKPAPKADAKPEADAKAADSAKK
aggregation of gp41 after shift from about pH 3.5 to pH 7.4 (UV spectra after 1 and 10 minutes; 1 µM gp41 with 2 µM or 4 µM FkpA) (gp41 (535-681)-His6 [2]): FkpA substantially reduces the aggregation of gp41 in a dose-dependent fashion | suppression of aggregation (stray light in UV spectra) by a two-fold and a four-fold molar excess of the chaperone (gp41 (535-681)-His6 [2]): there is compelling spectroscopic evidence that FkpA efficiently solubilizes the gp41 ectodomain in a dose-dependent fashion

B2: trigger factor from Thermatoga maritima (protein)
chain: MEVKELERDKNRVVLEYVFGAEEIAQAEDKAVRYLNQRVEIPGFRKGRIPKNVLKMKLGEEFQEYTLDFLMDLIPDTLKDRKLILSPIVTERELKDVTARVVVEVHEEPEVRIGDISKIEVEKVDEEKVLEKYVERRIEDLRESHALLEPKEGPAEAGDLVRVNMEVYNEEGKKLTSREYEYVISEDEDRPFVKDLVGKKKGDVVEIEREYEGKKYTYKLEVEEVYKRTLPEIGDELAKSVNNEFETLEQLKESLKKEGKEIYDVEMKESMREQLLEKLPEIVEIEISDRTLEILVNEAINRLKREGRYEQIVSSYESEEKFREELKERILDDIKRDRVIEVLAQEKGISVNDEELEKEAEELAPFWGISPDRAKSLVKARQDLREELRWAILKRKVLDLLLQEVKVKVVEPKGEGDDSEGKEDN
aggregation of gp41 after shift to neutral pH (UV spectra) (gp41 (535-681)-His6 [2]): Comparable data have been obtained with trigger factor from Thermatoga maritima

Reference: US20030176665A1
